B1: [35S]-methionine-labelled D2[IL3-2] probe (peptide)
chain: EAARRAQELEMEMLSSTSPPERTRYSPIPPSHHQLTLPDPSHHGLHSTPDSPAKPEKNGHAKDHPKIAKIFEIQTMPNGKTRTSLKTMSRRKLSQQKEKKATQ
modifications: [35S]-methionine-labelled
notes: also called [35S]-D2[IL3-2]

What was measured:
[1] = target: T1, GST fused DAT[NT2] (A16-T43) (UniProt P08515 1-218 = GST); experiment: in vitro binding assay: GST fusion on glutathione beads with the [35S]-D2[IL3-2] probe, autoradiography
T1 construct: also called GST-DAT[NT2]
Experimental: (§1) The beads were then washed 4-6 times with PBS containing 0.5% Triton X-100 and eluted with 10 mM glutathione elution buffer. Eluates were separated by SDS-PAGE and visualized by autoradiography.

[2] = target: T2, GST fused DAT[NT3] (K35-D68) (UniProt P08515 1-218 = GST); experiment: as above
T2 construct: also called GST-DAT[NT3]
Experimental: as §1

[3] = target: T3, GST fused DAT[NT1] (M1-P26) (UniProt P08515 1-218 = GST); experiment: in vitro binding assay, FIG. 1G
T3 construct: also called GST-DAT[NT1]
Experimental: as §1

[4] = target: B1; experiment: conclusion from the peptide competition in the in vitro binding assay (GST-DAT[NT1] with [35S]-D2[IL3-2])
Experimental: as §1

T3 sequence (P08515 1-218, tags or fused parts left off): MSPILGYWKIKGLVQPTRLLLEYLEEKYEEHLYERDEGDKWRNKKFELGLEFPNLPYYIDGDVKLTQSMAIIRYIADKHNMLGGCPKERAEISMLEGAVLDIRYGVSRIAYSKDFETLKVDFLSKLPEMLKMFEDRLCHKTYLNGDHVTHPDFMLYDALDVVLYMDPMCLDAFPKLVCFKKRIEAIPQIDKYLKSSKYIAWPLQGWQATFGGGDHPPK
T1 sequence (P08515 1-218, tags or fused parts left off): as above
T2 sequence (P08515 1-218, tags or fused parts left off): as above

Binder | binding result [1] | binding result [2] | binding result [3] | binding result [4]
B1 | no binding | no binding | binds | –
MSKSKCSVGLMSSVV (also called DAT[NT1-1] peptide) [purified DAT[NT1-1] (M1-V15) peptide] | – | – | – | binds
